Test results as given in paper doi:10.1101/2024.11.11.622902.
Where “and” joins values, the source holds several entries; their conditions need not be identical. Equal entries are not always repeated. Where two headings read alike, the source gives them in different places.

Experiments:
[1] = target: S-nitrosylated human GAPDH (hGAPDH treated with S-nitrosocysteine, CysNO) (human); assay: native MS
[2] = target: human glyceraldehyde-3-phosphate dehydrogenase (hGAPDH), wild type (human); assay: SEC
[3] = target: human glyceraldehyde-3-phosphate dehydrogenase (hGAPDH), wild type (human); assay: SEC; remark: listed apart in the source
[4] = target: human glyceraldehyde-3-phosphate dehydrogenase (hGAPDH), wild type (human); assay: native MS
[5] = target: human glyceraldehyde-3-phosphate dehydrogenase (hGAPDH), wild type (human); assay: native MS; remark: listed apart in the source
[6] = target: porcine glyceraldehyde-3-phosphate dehydrogenase (pGAPDH), wild type (pig (Sus scrofa)); assay: SEC
[7] = target: porcine glyceraldehyde-3-phosphate dehydrogenase (pGAPDH), wild type (pig (Sus scrofa)); assay: SEC; remark: listed apart in the source
[8] = target: porcine glyceraldehyde-3-phosphate dehydrogenase (pGAPDH), wild type (pig (Sus scrofa)); assay: SEC; remark: listed apart in the source
[9] = target: porcine glyceraldehyde-3-phosphate dehydrogenase (pGAPDH), wild type (pig (Sus scrofa)); assay: SEC; remark: listed apart in the source
[10] = target: porcine glyceraldehyde-3-phosphate dehydrogenase (pGAPDH), wild type (pig (Sus scrofa)); assay: SEC; remark: listed apart in the source
[11] = target: porcine glyceraldehyde-3-phosphate dehydrogenase (pGAPDH), wild type (pig (Sus scrofa)); assay: SEC; remark: listed apart in the source

With “S-nitrosylated human GAPDH (hGAPDH treated with S-nitrosocysteine, CysNO) (enzyme)” the stoichiometry N [1] was 4.

Work on “human glyceraldehyde-3-phosphate dehydrogenase (hGAPDH), wild type (enzyme)” yielded a stoichiometry N [2] of 4, a stoichiometry N [3] of 4 and a stoichiometry N [4] of 4. For the same substance, the stoichiometry N [5] was 4.

With “porcine glyceraldehyde-3-phosphate dehydrogenase (pGAPDH), wild type (enzyme)” the stoichiometry N [6] was 4, the stoichiometry N [7] was 4 and the stoichiometry N [8] was 2. The stoichiometry N [9] was 4 and 2, the stoichiometry N [10] was 4 and the stoichiometry N [11] was 4.
